In the supplement of paper PMC10724198:
± gives the standard deviation of the averaged measurements.

Assays:
Saccharomyces cerevisiae [1] = assay: protein stability index of tFT-peptide fusion (C-terminal peptide) (PSI (0-1 scale)); higher = more stable (slower turnover)
Procedure: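 MPS profiling in S. cerevisiae of the tFT-X12 degron library: putative degron peptides plus stable controls, 12 aa, fused to the C-terminus of a sfGFP-mCherry timer. Cells are FACS-sorted into 8 mCherry/sfGFP bins and deep-sequenced. PSI runs from 0 (unstable) to 1 (stable). Backgrounds are wild type, das1Δ and doa10Δ at 30 °C, and wild type, das1Δ, cdc34-1 and cdc53-1 at 37 °C; 2-3 technical replicates each.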

Saccharomyces cerevisiae [2] = assay: as above; settings: genetic background: wild type; temperature: 30 C
[3] = genetic background: cdc34-1, temperature: 37 C
[4] = genetic background: cdc53-1, temperature: 37 C
[5] = genetic background: das1 deletion, temperature: 30 C
[6] = genetic background: das1 deletion, temperature: 37 C
[7] = genetic background: doa10 deletion, temperature: 30 C
[8] = genetic background: wild type, temperature: 30 C
[9] = genetic background: wild type, temperature: 37 C
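Note: PSI is a weighted mean of sequencing reads over stability bins, variants kept only with over 10 reads, mCherry proximal and sfGFP distal, peptide attached via GGGS linker.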

With CPICDFLFLALF the protein stability index (Saccharomyces cerevisiae [1]; [3]) was 0.565 ± 0.021, the protein stability index (Saccharomyces cerevisiae [1]; [4]) was 0.599 ± 0.064 and the protein stability index (Saccharomyces cerevisiae [1]; [5]) was 0.483 ± 0.037. The protein stability index (Saccharomyces cerevisiae [1]; [6]) was 0.651 ± 0.022, the protein stability index (Saccharomyces cerevisiae [1]; [7]) was 0.469 ± 0.023 and the protein stability index (Saccharomyces cerevisiae [1]; [8]) was 0.424 ± 0.028. For the same sequence, the protein stability index (Saccharomyces cerevisiae [1]; [9]) was 0.598 ± 0.03 and the protein stability index (Saccharomyces cerevisiae [2]) was 0.424 ± 0.054.
TPVIPLIRVRDC showed a protein stability index (Saccharomyces cerevisiae [1]; [3]) of 0.59 ± 0.034, a protein stability index (Saccharomyces cerevisiae [1]; [4]) of 0.701 ± 0.012 and a protein stability index (Saccharomyces cerevisiae [1]; [5]) of 0.568 ± 0.017. The protein stability index (Saccharomyces cerevisiae [1]; [6]) was 0.691 ± 0.021, the protein stability index (Saccharomyces cerevisiae [1]; [7]) was 0.171 ± 0.011 and the protein stability index (Saccharomyces cerevisiae [1]; [8]) was 0.225 ± 0.02. The protein stability index (Saccharomyces cerevisiae [1]; [9]) was 0.456 ± 0.0093 and the protein stability index (Saccharomyces cerevisiae [2]) was 0.29 ± 0.023.
With GGRLGRAGGGGR the protein stability index (Saccharomyces cerevisiae [1]; [3]) was 0.633 ± 0.026, the protein stability index (Saccharomyces cerevisiae [1]; [4]) was 0.7243 ± 0.0029 and the protein stability index (Saccharomyces cerevisiae [1]; [5]) was 0.642 ± 0.024. For the same sequence, the protein stability index (Saccharomyces cerevisiae [1]; [6]) was 0.7168 ± 0.00089, the protein stability index (Saccharomyces cerevisiae [1]; [7]) was 0.66 ± 0.026 and the protein stability index (Saccharomyces cerevisiae [1]; [8]) was 0.6472 ± 0.0025. The protein stability index (Saccharomyces cerevisiae [1]; [9]) was 0.68996 ± 0.00034 and the protein stability index (Saccharomyces cerevisiae [2]) was 0.639 ± 0.22.
FTFLFPLRLLPL showed a protein stability index (Saccharomyces cerevisiae [1]; [3]) of 0.305 ± 0.051, a protein stability index (Saccharomyces cerevisiae [1]; [4]) of 0.295 ± 0.025 and a protein stability index (Saccharomyces cerevisiae [1]; [5]) of 0.377 ± 0.036. For the same sequence, the protein stability index (Saccharomyces cerevisiae [1]; [6]) was 0.478 ± 0.015, the protein stability index (Saccharomyces cerevisiae [1]; [7]) was 0.586 ± 0.033 and the protein stability index (Saccharomyces cerevisiae [1]; [8]) was 0.374 ± 0.009. It also gave a protein stability index (Saccharomyces cerevisiae [1]; [9]) of 0.442 ± 0.011 and a protein stability index (Saccharomyces cerevisiae [2]) of 0.3469 ± 0.00084.
VILYCSNVAVCS was tested, and the protein stability index (Saccharomyces cerevisiae [1]; [3]) was 0.355 ± 0.048, the protein stability index (Saccharomyces cerevisiae [1]; [4]) was 0.42 ± 0.013 and the protein stability index (Saccharomyces cerevisiae [1]; [5]) was 0.246 ± 0.019. For the same sequence, the protein stability index (Saccharomyces cerevisiae [1]; [6]) was 0.4263 ± 0.0013, the protein stability index (Saccharomyces cerevisiae [1]; [7]) was 0.212 ± 0.004 and the protein stability index (Saccharomyces cerevisiae [1]; [8]) was 0.248 ± 0.023. The protein stability index (Saccharomyces cerevisiae [1]; [9]) was 0.399 ± 0.011 and the protein stability index (Saccharomyces cerevisiae [2]) was 0.294 ± 0.0038.
CEVLVVVMCLWG gave a protein stability index (Saccharomyces cerevisiae [1]; [3]) of 0.199 ± 0.0023, a protein stability index (Saccharomyces cerevisiae [1]; [4]) of 0.295 ± 0.043 and a protein stability index (Saccharomyces cerevisiae [1]; [5]) of 0.224 ± 0.029. It also gave a protein stability index (Saccharomyces cerevisiae [1]; [6]) of 0.3738 ± 0.0025, a protein stability index (Saccharomyces cerevisiae [1]; [7]) of 0.196 ± 0.006 and a protein stability index (Saccharomyces cerevisiae [1]; [8]) of 0.217 ± 0.025. For the same sequence, the protein stability index (Saccharomyces cerevisiae [1]; [9]) was 0.32342 ± 4.2e-05 and the protein stability index (Saccharomyces cerevisiae [2]) was 0.285 ± 0.024.
For FIRLFLVSFFIS, the protein stability index (Saccharomyces cerevisiae [1]; [3]) was 0.405 ± 0.048, the protein stability index (Saccharomyces cerevisiae [1]; [4]) was 0.451 ± 0.027 and the protein stability index (Saccharomyces cerevisiae [1]; [5]) was 0.375 ± 0.019. The protein stability index (Saccharomyces cerevisiae [1]; [6]) was 0.567 ± 0.032, the protein stability index (Saccharomyces cerevisiae [1]; [7]) was 0.174 ± 0.013 and the protein stability index (Saccharomyces cerevisiae [1]; [8]) was 0.189 ± 0.022. For the same sequence, the protein stability index (Saccharomyces cerevisiae [1]; [9]) was 0.298 ± 0.0093 and the protein stability index (Saccharomyces cerevisiae [2]) was 0.31 ± 0.089.
DYARAWRTEVVC showed a protein stability index (Saccharomyces cerevisiae [1]; [3]) of 0.393 ± 0.046, a protein stability index (Saccharomyces cerevisiae [1]; [4]) of 0.448 ± 0.025 and a protein stability index (Saccharomyces cerevisiae [1]; [5]) of 0.328 ± 0.021. It also gave a protein stability index (Saccharomyces cerevisiae [1]; [6]) of 0.525 ± 0.016, a protein stability index (Saccharomyces cerevisiae [1]; [7]) of 0.288 ± 0.015 and a protein stability index (Saccharomyces cerevisiae [1]; [8]) of 0.332 ± 0.017. The protein stability index (Saccharomyces cerevisiae [1]; [9]) was 0.5088 ± 0.0024 and the protein stability index (Saccharomyces cerevisiae [2]) was 0.424 ± 0.01.
For STSSVMVFLRMC, the protein stability index (Saccharomyces cerevisiae [1]; [3]) was 0.5544 ± 0.0036, the protein stability index (Saccharomyces cerevisiae [1]; [4]) was 0.681 ± 0.038 and the protein stability index (Saccharomyces cerevisiae [1]; [5]) was 0.601 ± 0.013. The protein stability index (Saccharomyces cerevisiae [1]; [6]) was 0.708 ± 0.036, the protein stability index (Saccharomyces cerevisiae [1]; [7]) was 0.14 ± 0.003 and the protein stability index (Saccharomyces cerevisiae [1]; [8]) was 0.124 ± 0.01. The protein stability index (Saccharomyces cerevisiae [1]; [9]) was 0.161 ± 0.042 and the protein stability index (Saccharomyces cerevisiae [2]) was 0.281 ± 0.057.
For VLVSVSLRVCMV, the protein stability index (Saccharomyces cerevisiae [1]; [3]) was 0.0542 ± 0.021, the protein stability index (Saccharomyces cerevisiae [1]; [4]) was 0.101 ± 0.025 and the protein stability index (Saccharomyces cerevisiae [1]; [5]) was 0.106 ± 0.03. It also gave a protein stability index (Saccharomyces cerevisiae [1]; [6]) of 0.206 ± 0.015, a protein stability index (Saccharomyces cerevisiae [1]; [7]) of 0.083 ± 0.012 and a protein stability index (Saccharomyces cerevisiae [1]; [8]) of 0.108 ± 0.024. The protein stability index (Saccharomyces cerevisiae [1]; [9]) was 0.178 ± 0.016 and the protein stability index (Saccharomyces cerevisiae [2]) was 0.162 ± 0.039.
